Measurements: patent US20210369850, “COMPOUNDS AND […] USES […]” (CENTAURI THERAPEUTICS LIMITED, published 2021)

Tests used:
Details in all cases: tags: endogenous on A431 cells (ATCC CRL-1555)
[1] = target: T1, EGFR (epidermal growth factor receptor) (Homo sapiens, UniProt P00533 P00533:25-1210); assay: flow
Procedure: (§1) A secondary phycoerythrin labelled anti-human IgG antibody was used to detect binding of alpha-galactosyl IgG antibody to the compound.
(§2) A431 cells (ATCC CRL-1555) were harvested and resuspended at 5×10⁶ cells/mL in phosphate buffered saline (PBS) (Sigma D8662)+0.1% BSA (Bovine Serum Albumin-Sigma A2153)+0.1 mg/mL Yeast t-RNA (Invitrogen 15401-011)+5 mM MgCl₂ (Sigma M1028) and incubated on ice for 30 minutes to block. 5×10⁵ cells were then incubated with compound at various concentrations as described below or buffer alone at room temperature, shaking at 450 rpm for 1 hour. The cells were washed with 3×200 μL PBS+0.1% BSA, prior to adding 50 μL of Anti-alpha galactosyl IgG antibody (custom purification from human IVIG, Rockland Immunochemicals, Inc.) at 45 μg/mL in PBS+0.1% BSA and incubating at 4° C. for 1 hour. […] After a final wash of 3×200 μL PBS+0.1% BSA the cells were resuspended in 200 μL PBS+0.1% BSA and evaluated on a flow cytometer (FC500 Beckman Coulter). Data from all samples were analysed in the Kaluza software package (Beckman Coulter).
(§3) The fold shift over background was calculated by dividing the Mean Fluorescence Intensity (MFI) obtained in the presence of 10 nM or 1 μM alphamer by the Mean Fluorescence Intensity (MFI) obtained in the absence of alphamer. […]

[2] = target: T1, EGFR (epidermal growth factor receptor); assay: flow; at 1 uM (2.5 at 10 nM); same conditions
Procedure: as §1, §2, §3

[3] = target: T1, EGFR (epidermal growth factor receptor); assay: flow; at 1 uM (7.1 at 10 nM); same conditions
Procedure: as §1, §2, §3

[4] = target: T1, EGFR (epidermal growth factor receptor); assay: flow; at 1 uM (6.4 at 10 nM); same conditions
Procedure: as §1, §2, §3

[5] = target: T1, EGFR (epidermal growth factor receptor); assay: flow; at 1 uM (7.0 at 10 nM); same conditions
Procedure: as §1, §2, §3

[6] = target: T1, EGFR (epidermal growth factor receptor); assay: flow; at 1 uM (6.5 at 10 nM); same conditions
Procedure: as §1, §2, §3

[7] = target: T1, EGFR (epidermal growth factor receptor); assay: flow; at 1 uM (4.2 at 10 nM); same conditions
Procedure: as §1, §2, §3

[8] = target: T1, EGFR (epidermal growth factor receptor); assay: flow; at 1 uM (3.8 at 10 nM); same conditions
Procedure: as §1, §2, §3

[9] = target: T1, EGFR (epidermal growth factor receptor); assay: flow; at 1 uM (5.5 at 10 nM); same conditions
Procedure: as §1, §2, §3

[10] = target: T1, EGFR (epidermal growth factor receptor); assay: flow; at 1 uM (5.8 at 10 nM); same conditions
Procedure: as §1, §2, §3

[11] = target: T1, EGFR (epidermal growth factor receptor); assay: flow; at 1 uM (5.7 at 10 nM); same conditions
Procedure: as §1, §2, §3

[12] = target: T1, EGFR (epidermal growth factor receptor); assay: flow; at 1 uM (5.9 at 10 nM); same conditions
Procedure: as §1, §2, §3

B1: RNA aptamer conjugate 4 (Example 26) (ssRNA)
RNA: GGGAUUUAAUCGCCGUAGAAAAGCAUGUCAAAGCCGGAACCC
modifications: as N22 but 5' alpha-Gal moiety from Preparation 90
**Q.** How did the binding signal [1] turn out when B1 was run?
**A.** 3.3 fold MFI over background

B2: RNA aptamer conjugate 5 (Example 27) (ssRNA)
RNA: B1 RNA
modifications: as N22 but 5' alpha-Gal moiety from Preparation 85
**Q.** Which binding signal [2] does the source give for B2 here?
**A.** 4.1 fold MFI over background

B3: RNA aptamer conjugate 14 (Example 36) (ssRNA)
RNA: B1 RNA
modifications: as N22 but 5' alpha-Gal moiety from Preparation 95
**Q.** For B3, which binding signal [3] is on record?
**A.** 12.4 fold MFI over background

B4: RNA aptamer conjugate 15 (Example 37) (ssRNA)
RNA: B1 RNA
modifications: as N22 but 5' alpha-Gal moiety from Preparation 97
**Q.** For B4, which binding signal [4] is on record?
**A.** 12.2 fold MFI over background

B5: RNA aptamer conjugate 16 (Example 38) (ssRNA)
RNA: B1 RNA
modifications: as N22 but 5' alpha-Gal moiety from Preparation 98
**Q.** How did the binding signal [5] turn out when B5 was run?
**A.** 13.6 fold MFI over background

B6: RNA aptamer conjugate 17 (Example 39) (ssRNA)
RNA: B1 RNA
modifications: as N22 but 5' alpha-Gal moiety from Preparation 92
**Q.** Which binding signal [6] does the source give for B6 here?
**A.** 10.4 fold MFI over background

B7: RNA aptamer conjugate 6 (Example 28) (ssRNA)
RNA: B1 RNA
modifications: as N22 but 5' alpha-Gal moiety from Preparation 86
**Q.** For B7, which binding signal [7] is on record?
**A.** 8.1 fold MFI over background

B8: RNA aptamer conjugate 7 (Example 29) (ssRNA)
RNA: B1 RNA
modifications: as N22 but 5' alpha-Gal moiety from Preparation 84
**Q.** With B8 as the binder, how does the binding signal [8] read?
**A.** 8.2 fold MFI over background

B9: RNA aptamer conjugate 8 (Example 30) (ssRNA)
RNA: B1 RNA
modifications: as N22 but 5' alpha-Gal moiety from Preparation 83
**Q.** How did the binding signal [9] turn out when B9 was run?
**A.** 10.5 fold MFI over background

B10: RNA aptamer conjugate 9 (Example 31) (ssRNA)
RNA: B1 RNA
modifications: as N22 but 5' alpha-Gal moiety from Preparation 87
**Q.** B10 was tested. Which binding signal [10] did it give?
**A.** 12.5 fold MFI over background

B11: RNA aptamer conjugate 10 (Example 32) (ssRNA)
RNA: B1 RNA
modifications: as N22 but 5' alpha-Gal moiety from Preparation 89
**Q.** B11 was tested. Which binding signal [11] did it give?
**A.** 10.4 fold MFI over background

B12: RNA aptamer conjugate 11 (Example 33) (ssRNA)
RNA: B1 RNA
modifications: as N22 but 5' alpha-Gal moiety from Preparation 88
**Q.** Which binding signal [12] does the source give for B12 here?
**A.** 11 fold MFI over background

B13: RNA aptamer conjugate 12 (Example 34) (ssRNA)
RNA: B1 RNA
modifications: as N22 but 5' alpha-Gal moiety from Preparation 91
**Q.** With B13 as the binder, how does the binding signal [7] read?
**A.** 7.6 fold MFI over background

B14: RNA aptamer conjugate 13 (Example 35) (ssRNA)
RNA: B1 RNA
modifications: as N22 but 5' alpha-Gal moiety from Preparation 96
**Q.** B14 was tested. Which binding signal [4] did it give?
**A.** 12.3 fold MFI over background
